Common to all, as to test: cell-based or functional assay
Assay [1] deals with HIV-1 Env of pseudovirus MGRM-D-016 (HIV-1).
Assay [2] has as its target HIV-1 Env of pseudovirus MGRM-D-019 (HIV-1).
Assay [3] has as its target HIV-1 Env of pseudovirus MGRM-F1-022 (HIV-1).
Assay [4] addresses HIV-1 Env of isolate 92UG001 (HIV-1).
Assay [5] deals with HIV-1 Env of isolate 92UG005 (HIV-1).
The target of assay [6] is HIV-1 Env of isolate MGRM-AE-002 (pseudovirus) (HIV-1).
The target in assay [7] is HIV-1 Env of isolate MGRM-C-014 (subtype C), on pseudovirus (HIV-1).
The target of assay [8] is HIV-1 Env of isolate MGRM-D-004 (HIV-1).
Assay [9] concerns the target HIV-1 Env of pseudovirus isolate MGRM-Chronic-B-002 (clade B) (HIV-1).

Chain of PGT-141 (4964_G22; 4993_K13) (antibody) (VH): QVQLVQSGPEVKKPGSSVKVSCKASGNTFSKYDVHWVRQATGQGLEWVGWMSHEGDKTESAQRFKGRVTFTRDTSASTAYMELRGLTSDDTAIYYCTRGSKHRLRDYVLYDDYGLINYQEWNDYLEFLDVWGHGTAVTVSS
Chain of PGT-141 (4964_G22; 4993_K13) (antibody) (VL): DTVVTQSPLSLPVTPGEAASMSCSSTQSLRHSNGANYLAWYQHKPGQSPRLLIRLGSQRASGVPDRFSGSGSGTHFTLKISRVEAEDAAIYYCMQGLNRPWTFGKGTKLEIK
Chain of PGT-145 (4995_P16) (antibody) (VH): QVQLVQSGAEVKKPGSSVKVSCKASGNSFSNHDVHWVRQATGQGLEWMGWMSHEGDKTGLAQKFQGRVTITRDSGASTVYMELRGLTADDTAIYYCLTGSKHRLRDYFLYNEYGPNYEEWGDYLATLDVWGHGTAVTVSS
Chain of PGT-145 (4995_P16) (antibody) (VL): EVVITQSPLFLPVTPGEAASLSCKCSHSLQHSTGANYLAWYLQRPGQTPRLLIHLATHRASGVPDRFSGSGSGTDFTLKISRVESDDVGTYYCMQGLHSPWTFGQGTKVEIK
Chain of PGT-142 (4995_E20) (antibody) (VH): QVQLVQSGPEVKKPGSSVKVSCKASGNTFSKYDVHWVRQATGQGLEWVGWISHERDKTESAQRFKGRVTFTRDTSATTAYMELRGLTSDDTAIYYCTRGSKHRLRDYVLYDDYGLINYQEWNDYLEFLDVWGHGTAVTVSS
Chain of PGT-143 (4980_N08) (antibody) (VH): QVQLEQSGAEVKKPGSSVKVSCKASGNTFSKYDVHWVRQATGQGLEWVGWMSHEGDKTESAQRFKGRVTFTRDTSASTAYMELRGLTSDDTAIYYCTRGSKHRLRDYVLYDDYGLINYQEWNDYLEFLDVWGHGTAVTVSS
Chain of PGT-143 (4980_N08) (antibody) (VL): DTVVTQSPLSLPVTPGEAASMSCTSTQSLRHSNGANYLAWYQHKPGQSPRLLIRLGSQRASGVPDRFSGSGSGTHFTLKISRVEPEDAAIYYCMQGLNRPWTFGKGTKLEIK
Chain of PGT-144 (4970_K22) (antibody) (VH): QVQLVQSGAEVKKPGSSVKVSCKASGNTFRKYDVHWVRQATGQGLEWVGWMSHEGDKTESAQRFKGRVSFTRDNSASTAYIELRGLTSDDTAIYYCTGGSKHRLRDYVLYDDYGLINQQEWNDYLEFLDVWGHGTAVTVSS
Chain of PGT-144 (4970_K22) (antibody) (VL): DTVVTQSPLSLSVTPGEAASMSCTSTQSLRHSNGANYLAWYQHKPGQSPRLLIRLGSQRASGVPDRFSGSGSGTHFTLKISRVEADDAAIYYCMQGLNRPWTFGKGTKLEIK

PGT-144 (4970_K22) (antibody): the IC50, pseudovirus neutralization in assay [1] was more than 50 µg/mL; in [2] it was more than 50 µg/mL; in assay [3] it was 0.382 µg/mL.

In the case of PGT-142 (4995_E20) (antibody), the figures for the IC50, pseudovirus neutralization in assay [1], in [2] and in [3] were more than 50 µg/mL, 0.155 µg/mL and 0.04 µg/mL, respectively.

On to PGT-145 (4995_P16) (antibody), for which the results for the IC50, pseudovirus neutralization in assay [1], in assay [2] and in assay [3] were more than 50 µg/mL, 0.111 µg/mL and 0.009 µg/mL, respectively.

Turning to PGT-143 (4980_N08) (antibody), the figures for the IC50, pseudovirus neutralization in assay [1], in [2] and in assay [3] were more than 50 µg/mL, 0.277 µg/mL and 0.082 µg/mL, respectively.

With VRC01 (antibody), the IC50 (µg/mL), pseudovirus neutralization in assay [4] came out at 1.16 µg/mL; in assay [5], 0.576 µg/mL; in [8], 1.25 µg/mL. In addition, in [6], the IC50 (µg/mL), single-round pseudovirus neutralization was 0.217 µg/mL. For the same substance, the IC50, single-round pseudovirus neutralization in [7] was more than 50 µg/mL. Moreover, the IC50, pseudovirus neutralization in assay [1] was found to be 0.452 µg/mL; in assay [2], 0.119 µg/mL; in assay [3], 0.055 µg/mL; in [9], 0.117 µg/mL.

With PGT-141 (4964_G22; 4993_K13) (antibody), the IC50, pseudovirus neutralization in assay [1] is more than 50 µg/mL; in [2], 1.66 µg/mL; in assay [3] it was 0.114 µg/mL.
